{"source": "the supplement of paper PMC10567573", "parents": {"B1": {"name": "ZNF232 (parent)", "chain": "HSGEKPFICKECGKAYGWCSELIR"}}}
{"variants_of": "B1", "assay": "protein stability index of a GFP-peptide fusion (GPS, HEK-293T) (PSI 1-6); higher = more stable", "settings": "c terminus: a fixed tail appended"}
{"variant": "HSGEKPFLCKECGKAYGWCSELIR", "protein stability index": 1.75}
{"variant": "HSGEKPFMCKECGKAYGWCSELIR", "protein stability index": 2.38}
{"variant": "HSGEKPFNCKECGKAYGWCSELIR", "protein stability index": 2.58}
{"variant": "HSGEKPFPCKECGKAYGWCSELIR", "protein stability index": 1.81}
{"variant": "HSGEKPFQCKECGKAYGWCSELIR", "protein stability index": 2.02}
{"variant": "HSGEKPFRCKECGKAYGWCSELIR", "protein stability index": 1.44}
{"variant": "HSGEKPFSCKECGKAYGWCSELIR", "protein stability index": 2.28}
{"variant": "HSGEKPFTCKECGKAYGWCSELIR", "protein stability index": 1.23}
{"variant": "HSGEKPFVCKECGKAYGWCSELIR", "protein stability index": 1.58}
{"variant": "HSGEKPFWCKECGKAYGWCSELIR", "protein stability index": 1.69}
{"variant": "HSGEKPFYCKECGKAYGWCSELIR", "protein stability index": 1.74}
{"variant": "HSGEKPFIAKECGKAYGWCSELIR", "protein stability index": 1.94}
{"variant": "HSGEKPFIDKECGKAYGWCSELIR", "protein stability index": 2.71}
{"variant": "HSGEKPFIEKECGKAYGWCSELIR", "protein stability index": 2.3}
{"variant": "HSGEKPFIFKECGKAYGWCSELIR", "protein stability index": 2.78}
{"variant": "HSGEKPFIGKECGKAYGWCSELIR", "protein stability index": 1.97}
{"variant": "HSGEKPFIHKECGKAYGWCSELIR", "protein stability index": 3.06}
{"variant": "HSGEKPFIIKECGKAYGWCSELIR", "protein stability index": 2.54}
{"variant": "HSGEKPFIKKECGKAYGWCSELIR", "protein stability index": 2.09}
{"variant": "HSGEKPFILKECGKAYGWCSELIR", "protein stability index": 2.25}
{"variant": "HSGEKPFIMKECGKAYGWCSELIR", "protein stability index": 2.6}
{"variant": "HSGEKPFINKECGKAYGWCSELIR", "protein stability index": 2.09}
{"variant": "HSGEKPFIPKECGKAYGWCSELIR", "protein stability index": 2.23}
{"variant": "HSGEKPFIQKECGKAYGWCSELIR", "protein stability index": 2.48}
{"variant": "HSGEKPFIRKECGKAYGWCSELIR", "protein stability index": 2.32}
{"variant": "HSGEKPFISKECGKAYGWCSELIR", "protein stability index": 1.92}
{"variant": "HSGEKPFITKECGKAYGWCSELIR", "protein stability index": 2.34}
{"variant": "HSGEKPFIVKECGKAYGWCSELIR", "protein stability index": 2.33}
{"variant": "HSGEKPFIWKECGKAYGWCSELIR", "protein stability index": 2.43}
{"variant": "HSGEKPFIYKECGKAYGWCSELIR", "protein stability index": 2.68}
{"variant": "HSGEKPFICAECGKAYGWCSELIR", "protein stability index": 1.68}
{"variant": "HSGEKPFICCECGKAYGWCSELIR", "protein stability index": 1.7}
{"variant": "HSGEKPFICDECGKAYGWCSELIR", "protein stability index": 1.66}
{"variant": "HSGEKPFICEECGKAYGWCSELIR", "protein stability index": 2.33}
{"variant": "HSGEKPFICFECGKAYGWCSELIR", "protein stability index": 1.9}
{"variant": "HSGEKPFICGECGKAYGWCSELIR", "protein stability index": 1.96}
{"variant": "HSGEKPFICHECGKAYGWCSELIR", "protein stability index": 1.75}
{"variant": "HSGEKPFICIECGKAYGWCSELIR", "protein stability index": 2.01}
{"variant": "HSGEKPFICLECGKAYGWCSELIR", "protein stability index": 1.92}
{"variant": "HSGEKPFICMECGKAYGWCSELIR", "protein stability index": 1.96}
{"variant": "HSGEKPFICNECGKAYGWCSELIR", "protein stability index": 1.82}
{"variant": "HSGEKPFICPECGKAYGWCSELIR", "protein stability index": 2.07}
{"variant": "HSGEKPFICQECGKAYGWCSELIR", "protein stability index": 2.01}
{"variant": "HSGEKPFICRECGKAYGWCSELIR", "protein stability index": 1.76}
{"variant": "HSGEKPFICSECGKAYGWCSELIR", "protein stability index": 2.09}
{"variant": "HSGEKPFICTECGKAYGWCSELIR", "protein stability index": 1.66}
{"variant": "HSGEKPFICVECGKAYGWCSELIR", "protein stability index": 1.82}
